B1: Hairpin Ribozyme (parent)
chain: GUCCUCUUUCACGUGCGCGUGAAAGAGAGAAGUGAACCAGAGAAACACACGUUGUGGUAUAUUACCUGGUA

Variants of: B1
Assay: self-cleavage, relative activity (ratio to wild type); higher = more cleavage; co-transcriptional

| Variant | self-cleavage |
| --- | --- |
| A22G A64U | 0.173 |
| A22C A71U | 0.685 |
| A22C A71G | 0.945 |
| G21U A26C | 0.123 |
| G21C G57U | 0.189 |
| G21A A59G | 0.125 |
| U20C C66U | 0.486 |
| U20C C66A | 0.309 |
| G21C U52C | 0.971 |
| G21C U52A | 0.909 |
| G21C C38U | 0.452 |
| A22U A28G | 1.13 |
| U20G A71G | 0.971 |
| U20G A71U | 0.605 |
| G21A C48A | 0.19 |
| G21A C48U | 0.0963 |
| G21C A35C | 0.748 |
| G21C C37G | 0.425 |
| U20C C37A | 0.426 |
| U20C C37G | 0.342 |
| A22G C46A | 0.171 |
| A22G C65U | 0.395 |
| G21C A47U | 0.181 |
| G21C A47C | 0.254 |

| Variant | self-cleavage |
| --- | --- |
| A22C A44C | 0.0803 |
| U20C A39C | 0.562 |
| A22G G68A | 0.307 |
| A22G G68U | 0.362 |
| A22G G68C | 0.182 |
| A22G U53C | 0.817 |
| U20G A36U | 0.749 |
| U20G A36C | 0.771 |
| G21U C65A | 0.996 |
| G21U A23C | 0.595 |
| U20A G54A | 0.546 |
| U20C A47U | 0.161 |
| A22G C66A | 0.172 |
| A22G C66U | 0.453 |
| G21U U53G | 0.907 |
| G21U U53C | 0.85 |
| G21U U62G | 0.156 |
| G21U G51U | 0.992 |
| U20C G57C | 0.198 |
| G21A A49U | 0.234 |
| A22U A30G | 0.159 |
| A22C A64C | 0.101 |
| A22C A64U | 0.251 |
| U20G U53C | 0.633 |

| Variant | self-cleavage |
| --- | --- |
| U20G U53A | 0.927 |
| U20C U70G | 0.909 |
| G21C A44C | 0.0985 |
| G21C A44G | 0.194 |
| G21U U67C | 0.23 |
| G21A A28U | 0.719 |
| A22C A47G | 0.187 |
| A22C A47U | 0.208 |
| A22C A47C | 0.24 |
| U20C G56A | 0.255 |
| G21A U70A | 0.742 |
| G21A C38U | 0.466 |
| A22C A28C | 0.386 |
| A22C A28U | 0.504 |
| U20C U62C | 0.462 |
| G21U C66U | 0.427 |
| U20C G27A | 0.345 |
| U20C G27C | 0.169 |
| U20C U58C | 0.893 |
| U20C U58A | 0.673 |
| A22U A24G | 0.76 |
| U20G G57U | 0.212 |
| G21U G27C | 0.172 |
| U20G A31G | 0.581 |

| Variant | self-cleavage |
| --- | --- |
| G21U G34U | 1.24 |
| A22G G25C | 0.547 |
| A22G U60C | 0.899 |
| A22G U60G | 0.416 |
| U20G C65G | 0.177 |
| U20G C65A | 0.895 |
| U20G G56C | 0.312 |
| U20G G68C | 0.162 |
| A22C G68C | 0.247 |
| G21U U60A | 0.851 |
| G21U U60G | 0.48 |
| G21A G54A | 0.491 |
| G21A G54C | 0.293 |
| U20A U53A | 0.758 |
| A22G U63C | 0.245 |
| G21U U63A | 0.105 |
| A22G U55A | 0.318 |
| G21C A71C | 1.12 |
| G21C U70G | 0.658 |
| A22G G32C | 0.0859 |
| A22U A26G | 0.743 |
| U20G G34U | 1.5 |
| G21C G32A | 0.141 |
| G21C G32U | 0.0815 |

| Variant | self-cleavage |
| --- | --- |
| A22G A26U | 0.528 |
| U20A G40C | 0.0677 |
| G21U G40A | 0.309 |
| G21U G40U | 0.147 |
| A22G G29C | 0.129 |
| U20C G32U | 0.157 |
| G21A G29U | 0.186 |
| A22G A24C | 0.705 |
| G21A U52C | 0.817 |
| U20G U58A | 0.501 |
| A22G G51C | 0.745 |
| A22G U67A | 0.239 |
| A22G U67C | 0.231 |
| A22G U67G | 0.247 |
| U20C U33C | 0.13 |
| U20C C46U | 0.103 |
| U20C C46A | 0.237 |
| A22C A26U | 0.429 |
| U20G C48G | 0.179 |
| A22C A24U | 0.485 |
| U20G G42A | 0.266 |
| G21A G32C | 0.146 |
| U20G A26G | 0.788 |
| U20G A26C | 0.483 |

| Variant | self-cleavage |
| --- | --- |
| G21C U63A | 0.0855 |
| G21C U63G | 0.191 |
| G21A G40U | 0.151 |
| U20G A30C | 0.194 |
| G21U C38U | 0.357 |
| G21U C38G | 0.167 |
| G21U U58A | 0.493 |
| U20C G51U | 1.07 |
| U20C G51C | 0.54 |
| A22C A30U | 0.0473 |
| A22C A30G | 0.179 |
| U20A U33C | 0.186 |
| G21U A22C | 0.763 |
| G21U A22G | 0.736 |
| G21U A31G | 0.325 |
| G21U A31C | 0.0844 |
| G21A A26C | 0.0544 |
| U20C A61C | 0.138 |
| U20C A61G | 0.0608 |
| U20C G25A | 0.288 |
| A22C A61G | 0.123 |
| U20C A45U | 0.076 |
| U20C G29U | 0.235 |
| G21U A49C | 0.219 |

| Variant | self-cleavage |
| --- | --- |
| G21C U53A | 0.671 |
| A22G A71C | 1.28 |
| A22C U58A | 0.68 |
| A22U A31G | 0.589 |
| G21C A36G | 0.779 |
| U20C G42A | 0.19 |
| G21U A41U | 1.24 |
| G21U A41C | 1.12 |
| G21C A30C | 0.242 |
| G21C A30U | 0.139 |
| U20G G32A | 0.124 |
| A22G G54A | 0.428 |
| A22U A23U | 0.842 |
| G21C A59U | 0.204 |
| G21C A59G | 0.206 |
| G21A A36G | 0.959 |
| U20C A41G | 0.886 |
| U20C A41U | 1.36 |
| G21A U67G | 0.241 |
| A22C G57A | 0.119 |
| G21C A22C | 0.61 |
| G21C A22U | 0.715 |
| A22C C66G | 0.0576 |

— the RNAGym collection of RNA variant scans (doi:10.7554/elife.80360)
